Reference: paper PMC12135937

What was measured:
Assay in all cases: SPR; Biacore T100, CM4 chip; DIPs immobilised by amine coupling (700-900 RU), monomeric Dpr analytes in 3-fold dilution series (0.012 to 9, 27 or 81 µM); 25 °C; 10 mM Tris-HCl pH 7.2, 150 mM NaCl, 1 mM EDTA, 1 mg/mL BSA, 0.01% Tween-20; equilibrium responses fit to a 1:1 model
[1] = target: DIP-α (Drosophila melanogaster) (UniProt Q9W4R3)
[2] = target: DIP-β isoform C (Drosophila melanogaster)
[3] = target: DIP-λ (Drosophila melanogaster)
Chain of DIP-λ (Drosophila melanogaster) (main, as listed by the source): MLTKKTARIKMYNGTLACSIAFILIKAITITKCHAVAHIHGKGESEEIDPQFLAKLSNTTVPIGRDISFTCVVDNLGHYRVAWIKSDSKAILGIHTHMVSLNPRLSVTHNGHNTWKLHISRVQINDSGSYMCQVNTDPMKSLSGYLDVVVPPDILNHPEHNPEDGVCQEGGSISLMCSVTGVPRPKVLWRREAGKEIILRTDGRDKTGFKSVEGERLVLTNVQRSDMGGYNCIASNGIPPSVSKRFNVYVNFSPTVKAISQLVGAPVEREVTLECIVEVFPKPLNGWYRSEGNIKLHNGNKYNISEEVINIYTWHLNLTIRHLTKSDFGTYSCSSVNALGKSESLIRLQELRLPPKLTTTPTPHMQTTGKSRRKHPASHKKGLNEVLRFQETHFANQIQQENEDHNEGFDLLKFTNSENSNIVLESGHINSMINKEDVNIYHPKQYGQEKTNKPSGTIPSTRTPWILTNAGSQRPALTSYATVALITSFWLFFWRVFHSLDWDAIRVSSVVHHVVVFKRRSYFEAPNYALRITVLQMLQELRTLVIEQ

Chain of DIP-β isoform C (Drosophila melanogaster) (main, as listed by the source): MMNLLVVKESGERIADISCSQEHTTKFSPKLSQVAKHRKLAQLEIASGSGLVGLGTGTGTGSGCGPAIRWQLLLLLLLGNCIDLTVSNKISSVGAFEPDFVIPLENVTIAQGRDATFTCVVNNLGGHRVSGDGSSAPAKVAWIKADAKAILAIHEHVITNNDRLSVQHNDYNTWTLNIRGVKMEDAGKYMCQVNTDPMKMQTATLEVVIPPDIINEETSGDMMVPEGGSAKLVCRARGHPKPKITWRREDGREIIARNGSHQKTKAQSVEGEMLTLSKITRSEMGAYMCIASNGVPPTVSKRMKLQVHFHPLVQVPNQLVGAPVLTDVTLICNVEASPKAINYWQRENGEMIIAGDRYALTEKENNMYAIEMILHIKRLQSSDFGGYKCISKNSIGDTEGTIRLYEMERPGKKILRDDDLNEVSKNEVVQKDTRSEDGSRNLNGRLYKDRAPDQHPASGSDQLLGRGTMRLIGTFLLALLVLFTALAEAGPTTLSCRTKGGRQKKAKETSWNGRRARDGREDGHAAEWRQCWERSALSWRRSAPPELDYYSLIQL
Chain of DIP-α (Drosophila melanogaster) (Q9W4R3 entry or part of it): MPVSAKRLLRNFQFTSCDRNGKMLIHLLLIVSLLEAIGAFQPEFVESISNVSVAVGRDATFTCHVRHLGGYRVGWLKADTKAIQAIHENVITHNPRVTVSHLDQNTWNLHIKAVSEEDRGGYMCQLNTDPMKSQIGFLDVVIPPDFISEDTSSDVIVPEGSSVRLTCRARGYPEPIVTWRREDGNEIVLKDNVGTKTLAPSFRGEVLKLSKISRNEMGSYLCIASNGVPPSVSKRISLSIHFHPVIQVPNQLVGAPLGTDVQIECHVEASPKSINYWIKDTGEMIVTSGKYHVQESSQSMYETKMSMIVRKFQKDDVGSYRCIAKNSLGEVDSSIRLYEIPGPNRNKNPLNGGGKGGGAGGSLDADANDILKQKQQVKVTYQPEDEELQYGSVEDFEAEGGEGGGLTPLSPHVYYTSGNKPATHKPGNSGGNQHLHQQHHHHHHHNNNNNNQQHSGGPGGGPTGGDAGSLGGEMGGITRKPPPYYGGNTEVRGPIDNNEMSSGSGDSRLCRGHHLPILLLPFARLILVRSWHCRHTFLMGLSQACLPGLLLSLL

Kd [1]: 1.34 µM
Kd [2]: 84 µM
Kd [3]: 5.84 µM
B1: Dpr10 isoform A (domain or fragment)
chain: WNEPYFDLTMPRNITSLVGKSAYLGCRVKHLGNKTVAWIRHRDLHILTVGTYTYTTDQRFQTSYHRDIDEWTLQIKWAQQRDAGVYECQISTQPVRSYSVNLNIVDLIDAETSDIMQQYYNDDAFYIAENRVYQSSNDEFAGMFGPIQTVAVPTATILGGPDLYVDKGSTINLTCIIKFSPEPPTHIFWYHQDKVLSEETSGGRLKFKTIKSEETKSILLIYDADLLHSGKYSCYPSNTEIASIRVHVLQGE
